Laboratory results reported in article PMC8122577, “Estrogen-Related Receptor Influences the Hemolymph Glucose Content by Regulating Midgut Trehalase Gene Expression in the Last Instar Larvae of Bombyx mori”.

T1: BmERR DBD (Bombyx mori, UniProt A0A1B1M0R7 103-178)
T1 sequence: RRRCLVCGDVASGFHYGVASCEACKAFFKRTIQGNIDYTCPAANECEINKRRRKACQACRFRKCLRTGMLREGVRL

B1: ERRE-like CRE 6 (dsDNA)
DNA 1: GCCTACAAGGGCAATAAAA
DNA 2: TTTTATTGCCCTTGTAGGC
B2: ERRE-like CRE 4 (dsDNA)
DNA 1: CGATACAAGGTCAACGAGA
DNA 2: TCTCGTTGACCTTGTATCG
B3: ERRE-like CRE 1 (dsDNA)
DNA 1: GGGTTCTGACCTCGGAGGG
DNA 2: CCCTCCGAGGTCAGAACCC
B4: ERRE-like CRE 2 (dsDNA)
DNA 1: CATTGGTGACCTACATGGC
DNA 2: GCCATGTAGGTCACCAATG

Experiments:
BmERR DBD [1] = target: T1, BmERR DBD; experiment: EMSA; inhibited by competitive probe; EMSA (Beyotime chemiluminescent kit), 25 °C 20 min; 5% native PAGE in 45 mM Tris-borate, 1 mM EDTA pH 8.3; binding buffer not given; conditions: protein: recombinant; label: 3'-end biotin; blunt
BmERR DBD [2] = target: T1, BmERR DBD; experiment: EMSA; dose-dependent; reduced by anti-BmERR antibody or competitive probe; EMSA (Beyotime chemiluminescent kit), 25 °C 20 min; 5% native PAGE in 45 mM Tris-borate, 1 mM EDTA pH 8.3; binding buffer not given; conditions: protein: recombinant; label: 3'-end biotin; blunt

Row | Binder | binding result (BmERR DBD [1]) | binding result (BmERR DBD [2])
1 | B1 | binds | 
2 | B2 |  | binds
3 | B3 | binds | 
4 | B4 | binds | 
